Laboratory results as given in US20190338009A1 (ZEALAND PHARMA A S, published 2019).
Square brackets hold non-standard residues; d marks the D form. Aib = CC(C)(N)C(=O)O

T1: human GLP-2 receptor (hGLP2-R) (human, UniProt O95838 1-553)
T1 sequence (looked up): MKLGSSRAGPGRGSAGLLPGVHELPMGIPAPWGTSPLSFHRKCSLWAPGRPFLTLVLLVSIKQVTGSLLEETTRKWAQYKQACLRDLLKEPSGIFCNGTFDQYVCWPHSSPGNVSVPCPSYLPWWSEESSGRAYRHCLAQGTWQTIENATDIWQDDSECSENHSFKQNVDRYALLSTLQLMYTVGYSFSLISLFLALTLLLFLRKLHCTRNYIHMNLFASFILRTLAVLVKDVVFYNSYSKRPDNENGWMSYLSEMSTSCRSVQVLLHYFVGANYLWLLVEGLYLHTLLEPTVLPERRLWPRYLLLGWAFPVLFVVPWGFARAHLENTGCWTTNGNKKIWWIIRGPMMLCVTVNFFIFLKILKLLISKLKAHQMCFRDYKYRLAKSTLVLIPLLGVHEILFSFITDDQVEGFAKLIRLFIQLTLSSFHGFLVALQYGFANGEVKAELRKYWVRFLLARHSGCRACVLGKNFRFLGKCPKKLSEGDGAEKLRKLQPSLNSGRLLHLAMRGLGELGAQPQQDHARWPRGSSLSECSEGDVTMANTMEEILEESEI

B1: Compound 21 (peptide)
peptide: H-H[Aib]EGTFTSELATILDEQAARDFIAWLHQHKITD-OH
SMILES: CC[C@H](C)[C@H](NC(=O)[C@H](Cc1ccccc1)NC(=O)[C@H](CC(=O)O)NC(=O)[C@H](CCCNC(=N)N)NC(=O)[C@H](C)NC(=O)[C@H](C)NC(=O)[C@H](CCC(N)=O)NC(=O)[C@H](CCC(=O)O)NC(=O)[C@H](CC(=O)O)NC(=O)[C@H](CC(C)C)NC(=O)[C@@H](NC(=O)[C@@H](NC(=O)[C@H](C)NC(=O)[C@H](CC(C)C)NC(=O)[C@H](CCC(=O)O)NC(=O)[C@H](CO)NC(=O)[C@@H](NC(=O)[C@H](Cc1ccccc1)NC(=O)[C@@H](NC(=O)CNC(=O)[C@H](CCC(=O)O)NC(=O)C(C)(C)NC(=O)[C@@H](N)Cc1c[nH]cn1)[C@@H](C)O)[C@@H](C)O)[C@@H](C)O)[C@@H](C)CC)C(=O)N[C@@H](C)C(=O)N[C@@H](Cc1c[nH]c2ccccc12)C(=O)N[C@@H](CC(C)C)C(=O)N[C@@H](Cc1c[nH]cn1)C(=O)N[C@@H](CCC(N)=O)C(=O)N[C@@H](Cc1c[nH]cn1)C(=O)N[C@@H](CCCCN)C(=O)N[C@H](C(=O)N[C@H](C(=O)N[C@@H](CC(=O)O)C(=O)O)[C@@H](C)O)[C@@H](C)CC
B2: Compound 1 (peptide)
peptide: H-H[Aib]EGSFTSELATILDEQAARDFIAWLIAHKITD-OH
SMILES: CC[C@H](C)[C@H](NC(=O)[C@H](CC(C)C)NC(=O)[C@H](Cc1c[nH]c2ccccc12)NC(=O)[C@H](C)NC(=O)[C@@H](NC(=O)[C@H](Cc1ccccc1)NC(=O)[C@H](CC(=O)O)NC(=O)[C@H](CCCNC(=N)N)NC(=O)[C@H](C)NC(=O)[C@H](C)NC(=O)[C@H](CCC(N)=O)NC(=O)[C@H](CCC(=O)O)NC(=O)[C@H](CC(=O)O)NC(=O)[C@H](CC(C)C)NC(=O)[C@@H](NC(=O)[C@@H](NC(=O)[C@H](C)NC(=O)[C@H](CC(C)C)NC(=O)[C@H](CCC(=O)O)NC(=O)[C@H](CO)NC(=O)[C@@H](NC(=O)[C@H](Cc1ccccc1)NC(=O)[C@H](CO)NC(=O)CNC(=O)[C@H](CCC(=O)O)NC(=O)C(C)(C)NC(=O)[C@@H](N)Cc1c[nH]cn1)[C@@H](C)O)[C@@H](C)O)[C@@H](C)CC)[C@@H](C)CC)C(=O)N[C@@H](C)C(=O)N[C@@H](Cc1c[nH]cn1)C(=O)N[C@@H](CCCCN)C(=O)N[C@H](C(=O)N[C@H](C(=O)N[C@@H](CC(=O)O)C(=O)O)[C@@H](C)O)[C@@H](C)CC
B3: Compound 23 (peptide)
peptide: H-H[Aib]EGSFTSELATILDEQAARDFIAWLYEHKITD-OH
SMILES: CC[C@H](C)[C@H](NC(=O)[C@H](Cc1ccccc1)NC(=O)[C@H](CC(=O)O)NC(=O)[C@H](CCCNC(=N)N)NC(=O)[C@H](C)NC(=O)[C@H](C)NC(=O)[C@H](CCC(N)=O)NC(=O)[C@H](CCC(=O)O)NC(=O)[C@H](CC(=O)O)NC(=O)[C@H](CC(C)C)NC(=O)[C@@H](NC(=O)[C@@H](NC(=O)[C@H](C)NC(=O)[C@H](CC(C)C)NC(=O)[C@H](CCC(=O)O)NC(=O)[C@H](CO)NC(=O)[C@@H](NC(=O)[C@H](Cc1ccccc1)NC(=O)[C@H](CO)NC(=O)CNC(=O)[C@H](CCC(=O)O)NC(=O)C(C)(C)NC(=O)[C@@H](N)Cc1c[nH]cn1)[C@@H](C)O)[C@@H](C)O)[C@@H](C)CC)C(=O)N[C@@H](C)C(=O)N[C@@H](Cc1c[nH]c2ccccc12)C(=O)N[C@@H](CC(C)C)C(=O)N[C@@H](Cc1ccc(O)cc1)C(=O)N[C@@H](CCC(=O)O)C(=O)N[C@@H](Cc1c[nH]cn1)C(=O)N[C@@H](CCCCN)C(=O)N[C@H](C(=O)N[C@H](C(=O)N[C@@H](CC(=O)O)C(=O)O)[C@@H](C)O)[C@@H](C)CC
B4: Compound 22 (peptide)
peptide: H-H[Aib]EGSFTSELATILDEQAARDFIAWLHAHKITD-OH
SMILES: CC[C@H](C)[C@H](NC(=O)[C@H](Cc1ccccc1)NC(=O)[C@H](CC(=O)O)NC(=O)[C@H](CCCNC(=N)N)NC(=O)[C@H](C)NC(=O)[C@H](C)NC(=O)[C@H](CCC(N)=O)NC(=O)[C@H](CCC(=O)O)NC(=O)[C@H](CC(=O)O)NC(=O)[C@H](CC(C)C)NC(=O)[C@@H](NC(=O)[C@@H](NC(=O)[C@H](C)NC(=O)[C@H](CC(C)C)NC(=O)[C@H](CCC(=O)O)NC(=O)[C@H](CO)NC(=O)[C@@H](NC(=O)[C@H](Cc1ccccc1)NC(=O)[C@H](CO)NC(=O)CNC(=O)[C@H](CCC(=O)O)NC(=O)C(C)(C)NC(=O)[C@@H](N)Cc1c[nH]cn1)[C@@H](C)O)[C@@H](C)O)[C@@H](C)CC)C(=O)N[C@@H](C)C(=O)N[C@@H](Cc1c[nH]c2ccccc12)C(=O)N[C@@H](CC(C)C)C(=O)N[C@@H](Cc1c[nH]cn1)C(=O)N[C@@H](C)C(=O)N[C@@H](Cc1c[nH]cn1)C(=O)N[C@@H](CCCCN)C(=O)N[C@H](C(=O)N[C@H](C(=O)N[C@@H](CC(=O)O)C(=O)O)[C@@H](C)O)[C@@H](C)CC
B5: Compound 20 (peptide)
peptide: H-H[Aib]EGTFTSELATILDEQAARDFIAWLIAYKITD-OH
SMILES: CC[C@H](C)[C@H](NC(=O)[C@H](CC(C)C)NC(=O)[C@H](Cc1c[nH]c2ccccc12)NC(=O)[C@H](C)NC(=O)[C@@H](NC(=O)[C@H](Cc1ccccc1)NC(=O)[C@H](CC(=O)O)NC(=O)[C@H](CCCNC(=N)N)NC(=O)[C@H](C)NC(=O)[C@H](C)NC(=O)[C@H](CCC(N)=O)NC(=O)[C@H](CCC(=O)O)NC(=O)[C@H](CC(=O)O)NC(=O)[C@H](CC(C)C)NC(=O)[C@@H](NC(=O)[C@@H](NC(=O)[C@H](C)NC(=O)[C@H](CC(C)C)NC(=O)[C@H](CCC(=O)O)NC(=O)[C@H](CO)NC(=O)[C@@H](NC(=O)[C@H](Cc1ccccc1)NC(=O)[C@@H](NC(=O)CNC(=O)[C@H](CCC(=O)O)NC(=O)C(C)(C)NC(=O)[C@@H](N)Cc1c[nH]cn1)[C@@H](C)O)[C@@H](C)O)[C@@H](C)O)[C@@H](C)CC)[C@@H](C)CC)C(=O)N[C@@H](C)C(=O)N[C@@H](Cc1ccc(O)cc1)C(=O)N[C@@H](CCCCN)C(=O)N[C@H](C(=O)N[C@H](C(=O)N[C@@H](CC(=O)O)C(=O)O)[C@@H](C)O)[C@@H](C)CC

molecular target: human glucagon-like peptide 1 receptor (GLP-1R) (human, UniProt P43220 24-463); assay: cell-based or functional assay

| EC50 GLP-1 (nM); cAMP AlphaScreen, HEK293 cells expressing human GLP-1R [nM] | Binder |
| --- | --- |
| 0.049 | B1 |
| 0.014 | B2 |
| 0.12 | B3 |
| 0.28 | B4 |
| 0.012 | B5 |

molecular target: T1, human GLP-2 receptor (hGLP2-R); assay: cell-based or functional assay

| EC50 GLP-2 (nM); cAMP AlphaScreen, HEK293 cells expressing human GLP-2R [nM] | Binder |
| --- | --- |
| 0.11 | B1 |
| 0.036 | B2 |
| 0.034 | B3 |
| 0.042 | B4 |
| 0.26 | B5 |
